Experimental data taken from article PMC4066765, “Insights into how Spt5 functions in transcription elongation and repressing transcription coupled DNA repair” (Nucleic Acids Research, 2014).

Biological target: T1, Rpb1, largest subunit of RNA polymerase II (S. cerevisiae, UniProt P04050 1-1733)
T1 construct: Rpb1, largest subunit of RNA polymerase II, S. cerevisiae; detected and immunoprecipitated with antibody 8WG16; Stands in the cell as part of the 12-subunit RNAP II; in the co-IP it is the bait (8WG16); also called RNAP II; core RNAP II (immunoprecipitated through Rpb1); source: endogenous, S. cerevisiae (BJ5465 derivatives); in living cells (cross-linking) and in solubilised chromatin fraction …
T1 sequence (P04050 whole entry): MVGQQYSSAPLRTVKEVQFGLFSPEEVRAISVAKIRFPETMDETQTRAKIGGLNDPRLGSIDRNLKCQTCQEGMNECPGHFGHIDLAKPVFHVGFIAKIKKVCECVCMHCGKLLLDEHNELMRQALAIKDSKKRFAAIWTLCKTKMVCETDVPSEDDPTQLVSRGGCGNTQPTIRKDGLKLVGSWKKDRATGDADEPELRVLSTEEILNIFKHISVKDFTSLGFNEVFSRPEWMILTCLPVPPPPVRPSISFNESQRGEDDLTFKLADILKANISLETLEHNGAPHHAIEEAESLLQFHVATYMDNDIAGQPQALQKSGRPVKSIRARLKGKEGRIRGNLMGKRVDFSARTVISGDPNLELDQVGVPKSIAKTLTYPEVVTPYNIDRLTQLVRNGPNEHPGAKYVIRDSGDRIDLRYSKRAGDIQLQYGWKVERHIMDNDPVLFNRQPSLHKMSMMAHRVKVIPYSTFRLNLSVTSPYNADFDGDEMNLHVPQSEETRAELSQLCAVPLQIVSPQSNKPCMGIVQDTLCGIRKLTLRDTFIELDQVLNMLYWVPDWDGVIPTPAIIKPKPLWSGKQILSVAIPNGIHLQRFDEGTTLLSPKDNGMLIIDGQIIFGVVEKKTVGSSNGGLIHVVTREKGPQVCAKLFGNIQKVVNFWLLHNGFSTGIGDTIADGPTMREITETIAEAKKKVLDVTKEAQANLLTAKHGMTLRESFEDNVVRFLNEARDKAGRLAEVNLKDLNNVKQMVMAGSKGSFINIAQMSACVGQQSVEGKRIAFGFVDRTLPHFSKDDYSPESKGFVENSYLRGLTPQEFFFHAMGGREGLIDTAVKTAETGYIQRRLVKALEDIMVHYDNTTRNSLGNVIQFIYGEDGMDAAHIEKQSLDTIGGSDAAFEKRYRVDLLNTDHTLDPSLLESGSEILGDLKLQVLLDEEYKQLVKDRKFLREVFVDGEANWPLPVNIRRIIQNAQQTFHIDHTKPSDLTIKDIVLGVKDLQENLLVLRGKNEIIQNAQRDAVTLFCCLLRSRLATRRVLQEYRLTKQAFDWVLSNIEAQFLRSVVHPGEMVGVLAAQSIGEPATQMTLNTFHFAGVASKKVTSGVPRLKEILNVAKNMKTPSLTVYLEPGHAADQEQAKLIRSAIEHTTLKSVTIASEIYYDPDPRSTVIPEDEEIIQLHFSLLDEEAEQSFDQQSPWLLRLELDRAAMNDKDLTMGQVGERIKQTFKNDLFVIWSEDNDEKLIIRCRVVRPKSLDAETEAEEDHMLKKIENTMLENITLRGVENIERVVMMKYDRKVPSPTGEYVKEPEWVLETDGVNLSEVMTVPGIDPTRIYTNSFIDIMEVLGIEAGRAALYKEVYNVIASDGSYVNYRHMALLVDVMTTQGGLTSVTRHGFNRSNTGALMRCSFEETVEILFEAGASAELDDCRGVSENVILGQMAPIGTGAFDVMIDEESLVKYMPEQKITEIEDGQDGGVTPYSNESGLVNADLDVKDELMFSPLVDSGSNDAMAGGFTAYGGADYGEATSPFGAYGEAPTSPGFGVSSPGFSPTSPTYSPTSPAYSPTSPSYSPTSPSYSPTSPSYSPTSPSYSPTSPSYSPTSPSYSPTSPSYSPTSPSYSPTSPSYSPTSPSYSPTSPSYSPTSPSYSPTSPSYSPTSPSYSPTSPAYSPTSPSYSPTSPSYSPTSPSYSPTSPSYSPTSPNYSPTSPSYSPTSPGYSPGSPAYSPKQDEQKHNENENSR
Test: co-IP; chromatin fraction of log phase yeast cells solubilised by sonication in 50 mM HEPES pH 7.5, 140 mM NaCl, 1% Triton X-100, 0.1% sodium deoxycholate, 1 mM EDTA, 0.1% SDS; immunoprecipitated with 4 μg anti-Rpb1 8WG16; blots with 8WG16, 2Y14 and anti-Myc; cells expressing full-length, KOW4-deleted or KOW4-5-deleted Spt5
Conditions: partners not purified

fold reduction of co-immunoprecipitated Rpb4 in cells with KOW4-5-deleted Spt5 against cells with full-length Spt5: > 2 fold
B1: Rpb4 (endogenous) (natural protein, S. cerevisiae, UniProt P20433 1-221, looked up)
chain: MNVSTSTFQTRRRRLKKVEEEENAATLQLGQEFQLKQINHQGEEEELIALNLSEARLVIKEALVERRRAFKRSQKKHKKKHLKHENANDETTAVEDEDDDLDEDDVNADDDDFMHSETREKELESIDVLLEQTTGGNNKDLKNTMQYLTNFSRFRDQETVGAVIQLLKSTGLHPFEVAQLGSLACDTADEAKTLIPSLNNKISDDELERILKELSNLETLY
notes: Rpb4, subunit of RNA polymerase II, S. cerevisiae; detected with antibody 2Y14; source: endogenous, S. cerevisiae (BJ5465 derivatives), in solubilised chromatin fraction
